In patent US20240294623A1 (SCHOLAR ROCK, published 2024):

Key:
[1] = biological target: T1, hGARP-proTGFβ1 (human, UniProt Q14392 18-627; P01137 30-390, limits assumed); experiment: BLI (Octet)
T1 construct: LLC as m1; Same id used for the cell-surface complex in reporter assays; also called human GARP-proTGFβ1 complex; GARP-ProTGFb1

[2] = biological target: T2, hLTBP3-proTGFβ1 (human, UniProt Q9NS15 44-1303; P01137 30-390, limits assumed); experiment: BLI (Octet)
T2 construct: LLC as m1; Same id used for the cell-made complex in reporter assays; also called human LTBP3-proTGFβ1 complex; LTBP3-ProTGFb1
T2 sequence (Q9NS15 44-1303 limits assumed, chain 1 of 2): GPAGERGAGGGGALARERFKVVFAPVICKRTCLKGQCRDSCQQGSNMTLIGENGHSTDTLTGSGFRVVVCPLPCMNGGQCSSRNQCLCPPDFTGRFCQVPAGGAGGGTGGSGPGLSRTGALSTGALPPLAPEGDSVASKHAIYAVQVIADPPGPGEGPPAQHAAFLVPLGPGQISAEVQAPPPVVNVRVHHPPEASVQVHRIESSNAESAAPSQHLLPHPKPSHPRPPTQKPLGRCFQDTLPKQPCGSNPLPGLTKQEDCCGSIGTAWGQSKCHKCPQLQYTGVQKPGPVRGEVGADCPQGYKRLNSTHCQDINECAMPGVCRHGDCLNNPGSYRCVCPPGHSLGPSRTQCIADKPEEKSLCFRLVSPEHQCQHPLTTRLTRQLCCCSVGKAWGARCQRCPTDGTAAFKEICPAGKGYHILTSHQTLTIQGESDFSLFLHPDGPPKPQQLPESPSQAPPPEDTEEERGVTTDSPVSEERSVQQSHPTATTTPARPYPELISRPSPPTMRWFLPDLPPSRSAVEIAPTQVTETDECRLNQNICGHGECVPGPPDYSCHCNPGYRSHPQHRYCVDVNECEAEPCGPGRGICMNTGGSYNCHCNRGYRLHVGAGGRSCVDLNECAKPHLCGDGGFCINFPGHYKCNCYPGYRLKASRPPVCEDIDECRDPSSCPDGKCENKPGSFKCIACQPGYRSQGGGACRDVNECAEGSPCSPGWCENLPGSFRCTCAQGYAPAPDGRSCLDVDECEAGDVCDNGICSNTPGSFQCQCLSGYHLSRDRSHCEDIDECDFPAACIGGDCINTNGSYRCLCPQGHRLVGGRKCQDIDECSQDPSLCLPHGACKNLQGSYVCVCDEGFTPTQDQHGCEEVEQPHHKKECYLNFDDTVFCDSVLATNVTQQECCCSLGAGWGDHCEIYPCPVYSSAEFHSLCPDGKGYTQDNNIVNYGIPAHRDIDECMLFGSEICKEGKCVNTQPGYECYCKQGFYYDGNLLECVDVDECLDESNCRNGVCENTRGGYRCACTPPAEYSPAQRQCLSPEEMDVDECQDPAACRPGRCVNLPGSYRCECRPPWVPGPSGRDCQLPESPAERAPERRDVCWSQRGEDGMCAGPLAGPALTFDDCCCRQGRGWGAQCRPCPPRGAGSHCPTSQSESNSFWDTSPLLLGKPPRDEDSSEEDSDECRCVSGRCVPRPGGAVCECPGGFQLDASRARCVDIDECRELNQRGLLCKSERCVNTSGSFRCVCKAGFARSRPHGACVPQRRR
T2 sequence (P01137 30-390 limits assumed, chain 2 of 2): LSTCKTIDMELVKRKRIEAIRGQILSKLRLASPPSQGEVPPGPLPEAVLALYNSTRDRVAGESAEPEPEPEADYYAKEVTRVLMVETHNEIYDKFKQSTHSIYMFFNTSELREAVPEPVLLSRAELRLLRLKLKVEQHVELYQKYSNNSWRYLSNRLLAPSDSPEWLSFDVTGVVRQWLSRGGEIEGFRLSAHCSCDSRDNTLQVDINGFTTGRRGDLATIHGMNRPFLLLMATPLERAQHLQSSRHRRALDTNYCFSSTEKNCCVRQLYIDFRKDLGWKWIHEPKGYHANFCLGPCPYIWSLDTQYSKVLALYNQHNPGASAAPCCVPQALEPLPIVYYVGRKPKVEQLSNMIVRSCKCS

[3] = biological target: T3, hLTBP1-proTGFβ1 (human, UniProt Q14766 347-1721; P01137 30-390, limits assumed); experiment: BLI (Octet)
T3 construct: Large latent complex (LLC): proTGFβ1 dimer disulfide-linked to one presenting molecule; recombinant, purified, biotinylated in BLI/SPR; The same id is used for the complex made by transfected cells in the reporter assays; also called human LTBP1-proTGFβ1 complex; LTBP1-ProTGFb1
T3 sequence (Q14766 347-1721 limits assumed, chain 1 of 2): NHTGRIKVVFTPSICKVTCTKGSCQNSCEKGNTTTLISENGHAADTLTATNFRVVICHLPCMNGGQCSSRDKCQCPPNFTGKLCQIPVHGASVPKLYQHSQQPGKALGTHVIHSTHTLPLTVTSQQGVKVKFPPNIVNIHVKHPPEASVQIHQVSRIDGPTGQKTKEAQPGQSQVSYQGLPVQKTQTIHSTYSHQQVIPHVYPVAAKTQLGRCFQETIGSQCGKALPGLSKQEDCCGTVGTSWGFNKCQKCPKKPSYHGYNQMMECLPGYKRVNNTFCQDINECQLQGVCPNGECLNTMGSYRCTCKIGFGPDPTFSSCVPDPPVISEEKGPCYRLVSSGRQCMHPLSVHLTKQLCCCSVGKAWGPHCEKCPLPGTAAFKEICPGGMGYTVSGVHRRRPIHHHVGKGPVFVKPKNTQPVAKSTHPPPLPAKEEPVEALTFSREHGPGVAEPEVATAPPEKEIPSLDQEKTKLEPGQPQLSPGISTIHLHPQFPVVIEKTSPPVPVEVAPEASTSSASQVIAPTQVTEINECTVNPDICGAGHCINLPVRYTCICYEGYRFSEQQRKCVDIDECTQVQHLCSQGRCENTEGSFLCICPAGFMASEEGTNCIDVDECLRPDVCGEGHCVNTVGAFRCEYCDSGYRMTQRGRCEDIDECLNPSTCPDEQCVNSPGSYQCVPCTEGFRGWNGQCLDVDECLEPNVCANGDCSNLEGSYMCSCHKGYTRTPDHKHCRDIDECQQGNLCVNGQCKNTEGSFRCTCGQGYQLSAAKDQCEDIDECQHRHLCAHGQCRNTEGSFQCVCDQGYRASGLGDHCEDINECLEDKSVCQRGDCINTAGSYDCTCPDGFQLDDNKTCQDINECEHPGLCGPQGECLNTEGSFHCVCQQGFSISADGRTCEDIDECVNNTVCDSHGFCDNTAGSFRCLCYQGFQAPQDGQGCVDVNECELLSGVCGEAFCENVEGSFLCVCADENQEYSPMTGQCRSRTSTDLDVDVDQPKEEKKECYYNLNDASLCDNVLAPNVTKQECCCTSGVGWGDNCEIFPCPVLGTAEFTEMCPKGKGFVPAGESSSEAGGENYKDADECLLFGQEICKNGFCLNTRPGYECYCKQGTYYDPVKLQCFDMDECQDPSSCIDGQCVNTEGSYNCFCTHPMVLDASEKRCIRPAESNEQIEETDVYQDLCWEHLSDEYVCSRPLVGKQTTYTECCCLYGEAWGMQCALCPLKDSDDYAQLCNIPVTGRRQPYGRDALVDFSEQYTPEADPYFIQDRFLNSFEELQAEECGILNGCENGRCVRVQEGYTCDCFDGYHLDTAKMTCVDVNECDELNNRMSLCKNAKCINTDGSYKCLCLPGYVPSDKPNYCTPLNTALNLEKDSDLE
T3 sequence (P01137 30-390 limits assumed, chain 2 of 2): as the sequence (P01137 30-390 limits assumed, chain 2 of 2) above

[4] = biological target: T4, hLRRC33-proTGFβ1 (human, UniProt Q86YC3 19-650; P01137 30-390, limits assumed); experiment: BLI (Octet)
T4 construct: LLC as m1; Same id used for the cell-surface complex in reporter assays; also called human LRRC33-proTGFβ1 complex; LRRC33-ProTGFb1
T4 sequence (Q86YC3 19-650 limits assumed, chain 1 of 2): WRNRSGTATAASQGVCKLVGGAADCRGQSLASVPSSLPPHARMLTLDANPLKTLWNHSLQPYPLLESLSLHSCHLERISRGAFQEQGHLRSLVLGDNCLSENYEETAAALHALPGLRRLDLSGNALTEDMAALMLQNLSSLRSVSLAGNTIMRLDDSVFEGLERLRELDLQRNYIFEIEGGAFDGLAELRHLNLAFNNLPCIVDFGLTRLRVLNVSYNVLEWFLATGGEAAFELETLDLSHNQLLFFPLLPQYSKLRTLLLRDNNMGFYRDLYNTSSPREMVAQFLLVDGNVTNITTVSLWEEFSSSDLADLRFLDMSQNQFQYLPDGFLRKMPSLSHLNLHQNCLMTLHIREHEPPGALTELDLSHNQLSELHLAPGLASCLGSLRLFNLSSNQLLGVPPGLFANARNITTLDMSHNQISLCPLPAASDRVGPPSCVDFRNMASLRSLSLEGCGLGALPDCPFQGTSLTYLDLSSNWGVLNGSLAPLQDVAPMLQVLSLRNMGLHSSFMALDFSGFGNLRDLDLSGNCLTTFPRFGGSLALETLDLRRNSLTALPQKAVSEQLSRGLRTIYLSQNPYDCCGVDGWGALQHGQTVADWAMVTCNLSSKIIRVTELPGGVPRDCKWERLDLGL
T4 sequence (P01137 30-390 limits assumed, chain 2 of 2): as the sequence (P01137 30-390 limits assumed, chain 2 of 2) above

[5] = biological target: T1, hGARP-proTGFβ1; experiment: MSD-SET, hIgG4
Procedure: (§1) For solution equilibrium titration-based binding assays, protein complexes that comprise one of the presenting molecules such as those shown above may be employed as antigen (presenting molecule-TGFβ1 complex, or an LLC). Test antibodies are allowed to form antigen-antibody complex in solution. Antigen-antibody reaction mixtures are incubated to allow an equilibrium to be reached; the amount of the antigen-antibody complex present in the assay reactions can be measured by suitable means well known in the art. As compared to BLI-based assays, SET-based assays are less affected by on/off rates of the antigen-antibody complex, allowing sensitive detection of very high affinity interactions.

[6] = biological target: T2, hLTBP3-proTGFβ1; experiment: MSD-SET, hIgG4
Procedure: as §1

[7] = biological target: T3, hLTBP1-proTGFβ1; experiment: MSD-SET, hIgG4
Procedure: as §1

[8] = biological target: T4, hLRRC33-proTGFβ1; experiment: MSD-SET, hIgG4
Procedure: as §1

[9] = biological target: T1, hGARP-proTGFβ1; experiment: MSD-SET
[10] = biological target: T2, hLTBP3-proTGFβ1; experiment: MSD-SET
[11] = biological target: T3, hLTBP1-proTGFβ1; experiment: MSD-SET
[12] = biological target: T5, mLTBP3-proTGFβ1 (mouse); experiment: MSD-SET
T5 construct: Murine LLC; also called murine LTBP3-proTGFβ1 complex

[13] = biological target: T6, mGARP-proTGFβ1 (mouse); experiment: MSD-SET
T6 construct: Murine LLC; also called murine GARP-proTGFβ1 complex

[14] = biological target: mLRRC33-proTGFβ1 (murine, UniProt Q8BMT4 20-651); experiment: MSD-SET
Sequence of mLRRC33-proTGFβ1 (Q8BMT4 20-651): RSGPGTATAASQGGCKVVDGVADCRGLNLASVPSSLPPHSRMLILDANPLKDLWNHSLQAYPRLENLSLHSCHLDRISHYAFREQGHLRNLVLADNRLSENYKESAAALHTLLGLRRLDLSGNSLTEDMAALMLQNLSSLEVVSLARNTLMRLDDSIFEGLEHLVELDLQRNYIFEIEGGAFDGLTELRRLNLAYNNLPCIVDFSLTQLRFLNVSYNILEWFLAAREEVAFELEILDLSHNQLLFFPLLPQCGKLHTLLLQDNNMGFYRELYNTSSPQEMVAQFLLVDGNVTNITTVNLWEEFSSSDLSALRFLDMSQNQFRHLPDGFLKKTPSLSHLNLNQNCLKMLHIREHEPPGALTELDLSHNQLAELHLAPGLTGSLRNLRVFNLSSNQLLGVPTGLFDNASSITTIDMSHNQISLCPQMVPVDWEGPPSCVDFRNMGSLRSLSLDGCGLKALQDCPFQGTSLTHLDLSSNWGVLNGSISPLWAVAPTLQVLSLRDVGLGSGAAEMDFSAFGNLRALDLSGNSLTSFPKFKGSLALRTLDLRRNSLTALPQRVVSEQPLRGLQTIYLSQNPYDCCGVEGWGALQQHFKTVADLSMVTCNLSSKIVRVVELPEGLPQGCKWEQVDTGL

[15] = biological target: T4, hLRRC33-proTGFβ1; experiment: MSD-SET
[16] = biological target: T7, mLTBP1-proTGFβ1 (mouse); experiment: MSD-SET
T7 construct: Murine LLC; also called murine LTBP1-proTGFβ1 complex

T1 sequence (Q14392 18-627 limits assumed, chain 1 of 2): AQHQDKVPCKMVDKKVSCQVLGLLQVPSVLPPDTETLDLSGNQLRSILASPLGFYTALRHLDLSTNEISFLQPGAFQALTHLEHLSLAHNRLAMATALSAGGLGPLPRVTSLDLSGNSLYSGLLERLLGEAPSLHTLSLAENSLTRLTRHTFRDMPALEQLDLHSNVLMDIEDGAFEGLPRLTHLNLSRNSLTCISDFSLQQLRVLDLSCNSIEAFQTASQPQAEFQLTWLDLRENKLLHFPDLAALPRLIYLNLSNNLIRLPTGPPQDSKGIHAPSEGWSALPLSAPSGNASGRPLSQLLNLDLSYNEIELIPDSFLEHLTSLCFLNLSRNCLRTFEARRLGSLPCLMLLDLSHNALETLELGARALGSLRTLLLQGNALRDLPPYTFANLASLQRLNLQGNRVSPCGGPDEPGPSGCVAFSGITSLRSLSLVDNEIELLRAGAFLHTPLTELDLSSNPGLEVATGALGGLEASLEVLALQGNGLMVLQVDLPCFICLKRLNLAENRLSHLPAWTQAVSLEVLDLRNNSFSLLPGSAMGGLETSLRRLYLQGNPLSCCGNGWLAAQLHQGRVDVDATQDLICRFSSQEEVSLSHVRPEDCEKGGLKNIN
T1 sequence (P01137 30-390 limits assumed, chain 2 of 2): as the sequence (P01137 30-390 limits assumed, chain 2 of 2) above

B1: Ab6 (antibody, V domains shown)
VH: EVQLVESGGGLVQPGGSLRLSCTASGFTFSSFSMDWVRQAPGKGLEWVSYISPSADTIYYADSVKGRFTISRDNAKNTLYLQMNSLRAEDTAVYYCARGVLDYGDMLMPWGQGTLVTVSS
VL: DIQMTQSPSSLSASVGDRVTITCQASQDITNYLNWYQQKPGKAPKLLIYDASNLETGVPSRFSGSGSGTDFTFTISSLQPEDIATYYCQQADNHPPWTFGGGTKVEIKR
notes: Fully human IgG4/kappa
[1]
  Kd: 404 pM
[2]
  Kd: 123 pM
[3]
  Kd: 207 pM
[4]
  Kd: 336 pM
[5]
  Kd: 27 pM
[6]
  Kd: 29 pM
[7]
  Kd: 18 pM
[8]
  Kd: 63 pM
[9]
  Kd: 27 pM
[10]
  Kd: 29 pM
[11]
  Kd: 18 pM
[12]
  Kd: 28 pM
[13]
  Kd: 21 pM
[14]
  Kd: 48 pM
[15]
  Kd: 63 pM
[16]
  Kd: 24 pM
